These are literature values, as cited in paper PMC10742151.

What is called Kd is a measure of binding affinity in units of concentration.

Like-named read-outs stand apart in the source and are kept apart here.

Series [1] has as its target CA125 (ovarian cancer biomarker antigen) (UniProt Q8WXI7). Conditions: AFM chip (DSP-activated APTES mica) with immobilized aptamer incubated in CA125 solution, then washed with 0.01% Emulgen 913; buffer, salt, pH and temperature ….
The target is the same in series [2]. Conditions: AFM chip (DSP-activated APTES mica) with immobilized aptamer incubated in CA125 solution, then washed with 0.01% Emulgen 913; buffer, salt, pH and temperature …. This is another data set of the same source.

For “apta#3 (ATW0055, BasePair Biotechnologies)”, in series [1], the Kd is 33.8 nM. Take “TAGGGAAGAGAAGGACATATGATTTTAGGGAAGAGAAGGACTTTTATGCCGCCTTGACTAGTACATGACCACTTGA [apta#1 (apta#2.26)]”: the Kd in series [2] was 166 nM. As to “TAGGGAAGAGAAGGACATATGATGATCAACAACACAAGGGGGGGGGTATCTAGTTGACTAGTACATGACCACTTGA [apta#2 (apta#2.43)]”, in series [2], the dissociation constant (Kd) is 239 nM.
